Results taken from patent US20250243292A1 (published 2025).

T1: fully glycosylated CD24 (recombinant, from CHO cells) (N-glycans, sialic acid and O-glycans kept (untreated))
T1 construct: Recombinant CD24 made in CHO cells, untreated; also called fully modified (N-glycan+sialic acid+O-glycan modifications) CD24; CD24 without deglycosylation
T1 chain: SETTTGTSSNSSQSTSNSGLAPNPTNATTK

B1: PP6373 (antibody, human IgG1, kappa, V domains shown)
VH: EVKFEESGGGLVQPGGSIKLSCAASGVTFSEAWMDWVRQSPEKGLEWVAEIRDKPNSYVTYYAESVKGRFTISRDDSKSRVYLQMNNLRTEDTGIYYCTGAMDYWGQGTSVTVSS
VL: DIVMTQTPLSLSVTIGQPASISCKSSQSLLYSNGKTYLNWLQQRPGQSPKRLIYQVSKLDPGIPDRFSGSGSETDFTLKISRVEAEDLGIYYCMQGSSLPWTFGGGTKLEIKR
notes: Biotinylated in tissue and cell staining; also called H4069 + L4071; P3050.ComF1.2H1

Tests used:
3B6 = molecular target: T2, 3B6; assay: peptide inhibition ELISA, 3B6 on NO-CD24
T2 construct: Monoclonal antibody; also called anti-CD24 monoclonal antibody 3B6
Description: (§1) To determine the antigenic epitope recognized by 3B6 and affinity matured clone PP6373, we synthesized overlapping peptides covering the mature CD24 amino acid sequence (Seq ID No 42), and pre-incubated them with 3B6 antibody prior to adding 3B6 to plates pre-coated with NO-CD24 protein (CD24Fc pretreated sequentially with N-glycosidase, NanA and O-glycosidase).

PP6373 [1] = molecular target: B1; assay: peptide inhibition ELISA, PP6373 on SA-N-CD24, peptides titrated
PP6373 [2] = molecular target: B1; assay: peptide inhibition ELISA, peptides titrated over a large dose range
Description: as §1

[3] = molecular target: T1, fully glycosylated CD24 (recombinant, …); assay: ELISA titration on coated Fc removed CD24, untreated
Description: FIG. 8. Quantitative comparison of binding between different CD24 glycoforms and anti-CD24 antibodies: parental PP6229 vs affinity matured PP6373. Fc removed CD24 were coated onto ELISA plate, and were then treated with either buffer (CD24), NanA (SA-) or NanA+N-glycanse (SA-N-) prior adding given doses of […] (left panel) or PP6373 (right panel). The maximum concentration tested was 7812.50 ng/ml with titration factor of 5× to a minimum concentration of 0.02 ng/ml.
Therefore, this clone is chosen for further study. The heavy chain sequence for PP6373 is listed in SEQ ID NO: 6 and the light chain sequence is listed on SEQ ID No.16. Compared with the parental sequence, the heavy chain has three mutations in CDR2, while the light chain has one mutation in CDR3 of the light chain. […] It is also of note that PP6373 gained the ability to bind to CD24 even without deglycosylation at 1/1000 level of that to SA-N-CD24. However, since CHO cells is known to have incomplete glycosylation, it is likely that the binding reflect the higher sensitivity of the antibody to detect minor glycoform in the recombinant CD24 prepared from CHO cells.

PP6373 [4] = molecular target: B1; assay: inhibition assay with truncated peptides

| binding result (3B6) | binding result (PP6373 [1]) | Binder | also measured |
| --- | --- | --- | --- |
| no binding | no binding | GTSSNSSQST (Synthetic overlapping peptide of mature CD24; by order probably peptide 2; also called one of the five overlapping CD24 peptides) [SEQ ID NO 44] |  |
|  |  | SNSGLAPNPT (Synthetic overlapping peptide of mature CD24) [peptide 4] | binding result (PP6373 [2]): binds |
| no binding | no binding | SSQSTSNSGL (Synthetic overlapping peptide of mature CD24; by order probably peptide 3; also called one of the five overlapping CD24 peptides) [SEQ ID NO 45] |  |
|  |  | B1 | binding relative to that to SA-N-CD24 [3]: 0.001 ratio |
|  |  | SNSGLAPN (C-terminally truncated form of peptide 4; also called truncated peptide 4) [SNSGLAPN (SEQ ID NO: 48)] | binding result (PP6373 [4]): binds |
| no binding | no binding | SETTTGTSSN (Synthetic overlapping peptide of mature CD24; by order probably peptide 1; also called one of the five overlapping CD24 peptides) [SEQ ID NO 43] |  |
| no binding | no binding | APNPTNATTK (Synthetic overlapping peptide of mature CD24; by order probably peptide 5; also called one of the five overlapping CD24 peptides) [SEQ ID NO 47] |  |
